# In patent US20040198656A1, “Methods of screening molecules that are used to prevent cardiovascular diseases” (priority 2001, published 2004):
# B1: AA4RP: Protein of 366 amino acids (SEQ ID NO 1), apolipoprotein AIV related protein; overexpressed in transgenic mice (protein, listed as Homo sapiens)
# chain: MASMAAVLTWALALLSAFSATQARKGFWDYFSQTSGDKGRVEQIHQQKMAREPATLKDSLEQDLNNMNKFLEKLRPLSGSEAPRLPQDPVGMRRQLQEELEEVKARLQPYMAEAHELVGWNLEGLRQQLKPYTMDLMEQVALRVQELQEQLRVVGEDTKAQLLGGVDEAWALLQGLQSRVVHHTGRFKELFHPYAESLVSGIGRHVQELHRSVAPHAPASPARLSRCVQVLSRKLTLKAKALHARIQQNLDQLREELSRAFAGTGTEEGAGPDPQMLSEEVRQRLQAFRQDTYLQIAAFTRAIDQETEEVQQQLAPPPPGHSAFAPEFQQTDSGKVLSKLQARLDDLWEDITHSLHDQGHSHLGDP
# Key:
# Type in all cases: in vivo
# [1] = Triglyceride levels in AA4RP transgenic mice on a lipid-rich diet
# Method: Samples from AA4RP transgenic mice or control mice maintained on a lipid-rich diet were diluted 1/3 or 1/5in physiological serum, then assayed for triglycerides against a calibration curve prepared with CFAS lipid calibrator, Ref. 759350 (Boehringer Mannheim GmbH, Germany). The calibration curve covered a concentration range of 16 to 500 μg/ml. 100 μl of each sample dilution or calibration point were deposited in each well of a 96-well titration plate. Next, 200 μl of triglyceride reagent Ref. 701912 (Boehringer Mannheim GmbH, Germany) were added to each well and the plate was incubated at 37° C. for 30 min. Optical densities (OD) were read on a spectrophotometer set at 492 nm. Triglyceride concentrations in each sample were calculated from a standard curve plotted as a linear equation y=ax+b, where y represents OD and x represents triglyceride concentration.
# [2] = test system: LpL; test: LpL activity in post-heparin plasma (total lipase minus HL); conditions: human AA4RP transgenic mice, FVB/N background
# Method: (§1) The test was carried out on post-heparin plasma (collected 5 min after heparin injection) from transgenic mice and control mice with a FVB/N genetic background. Total lipase activity was determined by incubation with radiolabelled triolein and in the presence of a cofactor (apo CII). HL activity was determined after incubation of each plasma sample with triolein but in this case in the absence of apo CII and in the presence of 1 M NaCl to eliminate LpL activity. Lipase activity in each plasma sample was then calculated by determining the number of moles of free fatty acid. Finally, LpL activity was calculated by subtracting HL activity from total lipase activity.
# [3] = test system: total lipase; test: Total lipase activity in post-heparin plasma (radiolabelled triolein, apo CII); conditions: human AA4RP transgenic mice, FVB/N background
# Method: as §1
# [4] = test system: apo CIII; test: Apo CIII assay by immuno-nephelometry in mice overexpressing human AA4RP; conditions: AA4RP transgenic mice, lipid-rich diet
# Method: Apo CIII in mice overexpressing human AA4RP was assayed by immuno-nephelometry on an ARRAY® immunochemistry system (Beckman Coulter, Villepinte, France). Pooled sera from normolipidic mice were used as standard; the apo CIII concentration therein was 25 μg/ml. A calibration curve from 4 μg/ml to 25 μg/ml was prepared by diluting the standard in 0.01 M potassium phosphate pH 7.2.
# Plasma samples from mice overexpressing human AA4RP or not, maintained on a lipid-rich diet, and plasma samples from knock out homozygous (−/−), heterozygous (+/−) or wild type (+/+) mice were diluted 1/6 or 1/12 in the same conditions as the standard. Forty-two microliters of each calibration point and each sample from the different mice under study were incubated with 42 μl of mouse anti-apo CIII (in a reaction cell containing polyethylene glycol (PEG)). The apo CIII concentration in the sample is directly proportional to the light intensity reflected by the precipitate formed during the antigen-antibody reaction.
# [5] = test system: HL; test: HL activity in post-heparin plasma (triolein, no apo CII, 1 M NaCl); conditions: human AA4RP transgenic mice, FVB/N background
# Method: as §1
# [6] = Triglyceride distribution in VLDL, LDL and HDL (Superose 6 FPLC) of plasma; conditions: AA4RP transgenic mice versus control mice, plasma fractions
# Method: The distribution of triglycerides in VLDL, LDL and HDL was studied on 200 μl fractions of plasma from AA4RP transgenic mice or control mice maintained on a lipid-rich diet.
# The different particles were fractionated on a Pharmacia Superose 6 column integrated in an AKTA FPLC system (Pharmacia Biotech, Umeå, Sweden). The different fractions were eluted with 0.01 M PBS, 0.1 M NaCl, pH 7.2 at a flow rate of 0.2 ml/min. The triglyceride concentration in each fraction was determined as described hereinabove.
molecule,measurement,setting,value
B1,Triglyceride levels versus control mice,[1]; Student's t test p<0.001,significantly lower
same,Triglycerides,[1]; mean,0.361 mg/mL
same,LpL activity versus controls,[2],significant increase
same,Total lipase activity versus controls,[3],significant increase
same,Apo CIII level versus control mice,[4],approximately three times lower
same,Apo CIII,"[4]; plasma, mean",30.70 µg/mL
same,HL activity versus controls,[5],significant increase
same,Accumulation of triglyceride-rich particles after a lipid-rich diet,[6],not observed
